Drawing on article PMC12794319 (Biochemical Journal, 2025), this text covers Ki for one molecule.

Assay [1] addresses T1, human wildtype TMPRSS2 ectodomain (activated, two-chain) (human, UniProt O15393-1 107-255; O15393-1 256-492).
T1 construct: TMPRSS2, human, UniProt O15393-1; held to the SP domain by a disulfide bond after cleavage; Expressed as one chain 107-492 with an Ig kappa leader; also called Human TMPRSS2; Hu TMPRSS2; source: FreeStyle 293 F (HEK293F), co-transfected with full-length HAI-2; purified from the supernatant (G25, Ni-NTA IMAC, size-exclusion chromatography)
Nature of the assay: enzyme inhibition kinetics (tight-binding inhibition, fit to the Morrison equation); 50 pM human or hamster TMPRSS2 incubated with a 2/3-fold serial dilution of HAI-2 (300 to 5.2 pM) for 16 hours at room temperature; rates on the fluorogenic substrate Boc-Gln-Ala-Arg-AMC; equilibrium inhibitory constant; triplicate. Conditions: both partners purified.

Assay [2] has as its target T2, Syrian hamster wildtype TMPRSS2 ectodomain (activated, two-chain) (Syrian hamster (Mesocricetus auratus), UniProt A0A1U8C7X1 108-254; A0A1U8C7X1 255-491).
T2 construct: TMPRSS2, Syrian hamster (Mesocricetus auratus), UniProt printed as 'A0A1U8C7 × 1'; N-terminal non-catalytic part of the ectodomain construct 108-491 up to the arginine of the scissile bond, R254; Expressed as one chain 108-491 with an Ig kappa leader; also called Hamster TMPRSS2; Ham TMPRSS2; source: FreeStyle 293 F (HEK293F), co-transfected with full-length HAI-2; purified from the supernatant …
The description is as above. Conditions: both partners purified.

T1 sequence (O15393 107-255, chain 1 of 2): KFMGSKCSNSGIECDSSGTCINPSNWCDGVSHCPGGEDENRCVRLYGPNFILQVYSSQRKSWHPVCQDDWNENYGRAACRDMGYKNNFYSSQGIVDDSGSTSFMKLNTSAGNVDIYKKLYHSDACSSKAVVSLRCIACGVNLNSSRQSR
T1 sequence (O15393 256-492, chain 2 of 2): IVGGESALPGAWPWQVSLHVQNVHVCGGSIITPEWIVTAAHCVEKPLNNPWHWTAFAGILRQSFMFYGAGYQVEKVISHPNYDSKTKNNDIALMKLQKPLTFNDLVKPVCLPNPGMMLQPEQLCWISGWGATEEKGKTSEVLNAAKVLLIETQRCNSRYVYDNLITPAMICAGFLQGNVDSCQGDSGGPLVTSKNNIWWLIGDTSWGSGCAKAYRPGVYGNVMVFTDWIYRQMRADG
T2 sequence (chain, as listed by the source, chain 1 of 2): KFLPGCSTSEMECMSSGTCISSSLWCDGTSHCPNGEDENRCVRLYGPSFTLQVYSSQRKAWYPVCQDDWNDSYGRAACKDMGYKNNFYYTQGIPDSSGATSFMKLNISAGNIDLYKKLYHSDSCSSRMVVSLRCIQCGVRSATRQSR
T2 sequence (chain, as listed by the source, chain 2 of 2): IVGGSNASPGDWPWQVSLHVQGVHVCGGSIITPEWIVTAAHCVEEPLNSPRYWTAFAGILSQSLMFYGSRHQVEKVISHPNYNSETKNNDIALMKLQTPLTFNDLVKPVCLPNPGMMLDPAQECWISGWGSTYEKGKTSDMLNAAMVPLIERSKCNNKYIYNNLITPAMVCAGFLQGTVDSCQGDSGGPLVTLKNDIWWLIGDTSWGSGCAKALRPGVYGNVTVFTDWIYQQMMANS

B1: human HAI-2 (hepatocyte growth factor activator inhibitor-2) ectodomain (domain or fragment, UniProt O43291-1 36-196, looked up)
chain: DFCLVSKVVGRCRASMPRWWYNVTDGSCQLFVYGGCDGNSNNYLTKEECLKKCATVTENATGDLATSRNAADSSVPSAPRRQDSEDHSSDMFNYEEYCTANAVTGPCRASFPRWYFDVERNSCNNFIYGGCRGNKNSYRSEEACMLRCFRQQENPPLPLGS
notes: source: FreeStyle 293 F (HEK293F), pcDNA3.1; purified (Ni-NTA IMAC, size-exclusion chromatography)
For B1, the Ki in assay [1] came out at 4.6 pM; in assay [2], 0.7 pM.

By Ki is commonly meant the equilibrium dissociation constant of an inhibitor or competing ligand from its target. The low end stands for tighter binding, the high end for weaker binding.
